Experimental data published in article PMC9076165 (RSC Advances, 2019).
Read-outs that look alike come from different tables or passages of the source. Where a SMILES comes first, the peptide text is derived from it.

How the values were obtained:
[1] = Solubility of the peptide in assay buffer / stock solutions; assay type: physicochemical; conditions: HK50 buffer (80 mM Hepes pH 7.6, 50 mM KCl), at concentrations equal to or higher than 10 μM
[2] = target: T1, RsmC (rRNA small subunit methyltransferase C) (Escherichia coli (ASKA collection), UniProt P39406 1-343); test: FRET
T1 sequence: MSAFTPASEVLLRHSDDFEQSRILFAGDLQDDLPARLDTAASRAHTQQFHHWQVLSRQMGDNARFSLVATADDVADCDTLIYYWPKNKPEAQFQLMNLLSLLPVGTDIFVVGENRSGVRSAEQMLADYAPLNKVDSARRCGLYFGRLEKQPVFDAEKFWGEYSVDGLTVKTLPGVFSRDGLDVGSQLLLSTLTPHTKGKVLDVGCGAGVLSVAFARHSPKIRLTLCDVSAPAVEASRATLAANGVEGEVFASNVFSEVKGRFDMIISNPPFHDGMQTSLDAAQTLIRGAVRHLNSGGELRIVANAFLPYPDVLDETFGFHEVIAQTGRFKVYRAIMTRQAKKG

3h34P1 heptapeptide (L) [3] = target: T2, 3h34P1 heptapeptide (L) (synthetic (Ph.D.-7 phage display)); test: tryptophan fluorescence quenching
T2 chain: KNHDWGV

3h34P1 heptapeptide (L) [4] = target: T2, 3h34P1 heptapeptide (L); test: tryptophan fluorescence quenching
3h34P1 heptapeptide (L) [5] = target: T2, 3h34P1 heptapeptide (L); test: tryptophan fluorescence quenching
3h34P1 heptapeptide (L) [6] = target: T2, 3h34P1 heptapeptide (L); test: tryptophan fluorescence quenching

CC(C)[C@H](NC(=O)CNC(=O)[C@H](Cc1c[nH]c2ccccc12)NC(=O)[C@H](CC(=O)O)NC(=O)[C@H](Cc1c[nH]cn1)NC(=O)[C@H](CC(N)=O)NC(=O)[C@@H](N)CCCCN)C(=O)O [P1] (H-KNHDWGV-OH)
Solubility in the buffer used for FRET titrations [1]: low solubility

B1: 3h34-Cy3 (ssRNA)
RNA: CCGUCAAGUCAUCAUGGCCC
binding result [2]: binds

B2: Control RNA 2 (ssRNA)
RNA: GAGGCCUUCGGGCCUC
binding result (3h34P1 heptapeptide (L) [3]): no binding

B3: Control RNA 1 (ssRNA)
RNA: GCCCUGAAAAGGGC
binding result (3h34P1 heptapeptide (L) [4]): no binding

B4: 5h34 (ssRNA)
RNA: GGUGCUGCAUGGCUGUCGG
binding result (3h34P1 heptapeptide (L) [5]): binds

B5: 3h34 (ssRNA)
RNA: CCGUCAAGUCAUCAUGGCCC
Kd (3h34P1 heptapeptide (L) [6]): 18 ± 5 nM
